{
  "source": "patent US20130167269A1",
  "binders": {"B1": {"name": "Full-length Cry6Aa1 protein (protein)", "chain": "MIIDSKTTLPRHSLIHTIKLNSNKKYGPGDMTNGNQFIISKQEWATIGAYIQTGLGLPVNEQQLRTHVNLSQDISIPSDFSQLYDVYCSDKTSAEWWNKNLYPLIIKSANDIASYGFKVAGDPSIKKDGYFKKLQDELDNIVDNNSDDDAIAKAIKDFKARCGILIKEAKQYEEAAKNIVTSLDQFLHGDQKKLEGVINIQKRLKEVQTALNQAHGESSPAHKELLEKVKNLKTTLERTIKAEQDLEKKVEYSFLLGPLLGFVVYEILENTAVQHIKNQIDEIKKQLDSAQHDLDRDVKIIGMLNSINTDIDNLYSQGQEAIKVFQKLQGIWATIGAQIENLRTTSLQEVQDSDDADEIQIELEDASDAWLVVAQEARDFTLNAYSTNSRQNLPINVISDSCNCSTTNMTSNQYSNPTTNMTSNQYMISHEYTSLPNNFMLSRNSNLEYKCPENNFMIYWYNNSDWYNNSDWYNN", "modifications": "125I-iodinated (Pierce Iodination Beads, Na125I) in the saturation assay; positions not given; unlabeled when used as competitor"}, "B2": {"name": "Chymotrypsin-truncated Cry35Ab1 core protein (protein)", "chain": "MLDTNKVYEISNHANGLYAATYLSLDDSGVSLMNKNDDDIDDYNLKWFLFPIDDDQYIITSYAANNCKVWNVNNDKINVSTYSSTNSIQKWQIKANGSSYVIQSDNGKVLTAGTGQALGLIRLTDESSNNPNQQWNLTSVQTIQLPQKPIIDTKLKDYPKYSPTGNIDNGTSPQLMGWTLVPCIMVNDPNIDKNTQIKTTPYYILKKYQYWQRAVGSNVALRPHEKKSYTYEWGTEIDQKTTIINTLGFQINIDSGMKFDIPEVGGGTDEIKTQLNEELKIEYSHETKIMEKYQEQSEIDNPTDQSMNSIGFLTITSLELYRYNGSEIRIMQIQTSDNDTYNVTSYPNHQQALL", "modifications": "125I-iodinated (Pierce Iodination Beads, Na125I) when used as the labeled ligand; positions not given; unlabeled when used as competitor"}},
  "key": {"[1]": {"biological_target": "Brush border membrane vesicle (BBMV) preparation from midguts of third instars of the western corn rootworm (Diabrotica virgifera virgifera LeConte) (Diabrotica virgifera virgifera)"}, "[2]": {"biological_target": "Brush border membrane vesicle (BBMV) preparation from midguts of third instars of the western corn rootworm (Diabrotica virgifera virgifera LeConte) (Diabrotica virgifera virgifera)", "experiment": "Homologous competition: unlabeled Cry35Ab1 (0-5,000 nM) against 5 nM 125I-Cry35Ab1 on BBMV (0.1 mg/ml); remaining about 50% considered nonspecific"}},
  "data": [
    {"binder": "B1", "values": [
      {"measurement": "Kd", "setting": "[1]", "result": 7.99, "unit": "nM"},
      {"measurement": "binding site concentration Bmax (pmole/ug BBMV)", "setting": "[1]", "result": 2.71}
    ]},
    {"binder": "B2", "values": [
      {"measurement": "Kd", "setting": "[1]", "result": 11.7, "unit": "nM"},
      {"measurement": "binding site concentration Bmax (pmole/ug BBMV)", "setting": "[1]", "result": 5.19},
      {"measurement": "percent of bound 125I-Cry35Ab1 displaced at approximately 100 nM unlabeled Cry35Ab1", "setting": "[2]", "result": "> 50", "unit": "%"}
    ]}
  ]
}
